The nanobody polyreactivity screen of Harvey et al. (2022)

Assay: yeast display, Sf9 membrane polyspecificity reagent, FACS + sequencing; frameworks hold sequencing errors
Summary of the method: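 Galactose-induced (36–48 hours) yeast carrying a synthetic nanobody display library were exposed to 10% biotinylated, detergent-solubilized Sf9 membrane reagent at 4 °C for 1 hour. FACS followed streptavidin microbead enrichment, using low and high (top ~1%) gates for expression (anti-HA) and reagent binding (streptavidin). Colony PCR, MiSeq 2 × 250 sequencing and CDR-length filtering followed. Labels for polyreactivity reflect the gate of origin.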

Sequence | polyreactivity (PSR sort gate)
QVQLVESGGGIDQAGGSLRLSCAASGSNFYTYAMGWYRQAPGKEREFVAAITRGGARTYYADSVKWRFTISRDNAKNTVYLQMNSLKPEDTAVYYCAKLGKATTQVGSDYWGQGTQVSVSS | low polyreactivity
QFQLVESGGGLVQAGGSLRLSCAASGSIFLWYAMGWYRQAPGKERELVAVITSSGGTTYYADSVKGRFTISRDNAKNTVYLQMNCMKPEDNAVYYSAADFYRHPPGSLTKLYYYWGQGTQVTVSS | low polyreactivity
QVQLQGSGGGLAQAGDSLRLSCAASGTIFSEYNNGLVSPGAGQRTRTCCRYWCWGNTYYADSAKGRFTTSRDNAKNTVYLQKNSLKPEDTAVYYCAFNRPYPSRHIYRGQGTQVTVSS | high polyreactivity
QVQLVESGGGLVQAGGSLRLSCAASGFIFPRYVMGWSRQAPGKERELVAAINSDISTNYADSVKGRFTISRDNAKNTVYLQMNSLKPEDTAVYDCAAERWDDRWEFDYWGQGTQVTVSS | low polyreactivity
QVQLVESGGGLVQAGGSLRISCAASGFIFFYAMGWYRQAPGKERELVASIDSGVSTDYADSVKGRLTISRDNAKNTVYLQMNSLKPEDNAVYYCAADPWSSLNYDYWGQGTQVTVSS | low polyreactivity
QVQLVESGGGLVQAGGSLRLSCAASGSIFRANAMGWYRQAPGKEREMVAAISYSGGSTYYADSVKGRFSISRDNAKNTVYLLMNSLKPEDTAVYYCAAEFLYASVYYSYWGQGTQVTVSS | high polyreactivity
QVQLVESGGGLVQAGGSLRLSCAASGSIFNGYAMGWYRQAPGKVRELVAAISWNGGRTYYADSVKGRFTISRDNAKNTVYLQKNSLKPEDTAVYYCNKVSGYDVDYWGQGTQVTVSS | high polyreactivity
QVLLVESGGGLDHAGGSLPLSCAASGFTFGDNAMGWYRQAPGKERELVAAITSTGGSTNYADSVKGRFTISRDNAKYTVYLQMNSLKPDDTAVYYCAAEWLYRHDGGYPRPMDYWGQGTQVTVSS | low polyreactivity
QVQLVESGGVLVQAGGSLRLSCASSGSIFYIYGMGWSRQAPWKERELVARISSGDRTNYADSVKGRFTISRDNAKNRVYLQMNSRNPDDTAVYYCAAKKRKIAGVGGDYWGQGTQVTVSS | high polyreactivity
QVQLVESGGGLVQAGGSLRLSSAASGGIFWYYTMGWYRQAPGKERELVAAISWSGGRTYYADSVKGRFTISRDNAKNTVYLQMNSLKPEDTAVYYCAANFRGVLGWYHYEYWGQGTQVTVSS | high polyreactivity
QVQLVESGGGLVQAGGSLRLSCAASGFTFWRNTMGWYRQEPGKERELVAGISGSGGSTYYADSVKGRFTSSRDNAKNTVYLQMNSLKPEDTAVYYCAKEPNVGTWRRWRYNYCGQGTQVTVSS | high polyreactivity
QVQLVESGGGLVQAGGSLRLSCAASGFIFRYYTMGWYRQAPGKERELVATITSGGSTYYADSVKGRFTISCDNAKNTVYLQMNSLKPEDTAVYYCAKVRDVLWRFNYWGQGTQVTVSS | high polyreactivity
QVQLVESGGGLVQAGGRLRLSCAASGRIFTYNAMGWYRQAPGKEREFVAAISSGGSTTYADSVKGRFTISRDNAKNTVYLQMNSLKPEDTAVYYCAAGGCRFAIIEYEYWGQGTQVTVSS | low polyreactivity
QVQLVESGGGLVQAGGSLRLSCAASGRIITYYAMGWYRQAPGKERELVAAITASGSRTYYADSVKGRFTISRDTAKNTVYLQMNSLKPEDTAVYYCAALSRLSPLSGSYYWGQGTQVTVSS | high polyreactivity
QVQLVESGGGLVQAGGSLRLSCAASGSTFRFNAMGWYRQAPGKERELVATISYSSDSTYYAYSVKVRFTISRDNAKNTVYLQMNSLKPEDTAVYYCAADSGYARFDYWGQGTQVTVSS | high polyreactivity
QVQLVESGGGLVQAGGSLRLSCAASGRIFTRYAMGWYREAPGKERELVAAIRIGDSTNYADSVKGRFTISRDNAKNTVYLQMNSLKPEDTAVYDCAAYLPRRRYYYWGQGTQVTVSS | high polyreactivity
QVQLVESGGGLVQAGGSLRLSCAASGLTFPYNLMGWYRQAPGKERELVASITSVGTTDYADSVKGRFTISRDNAKNTVYLQMNSLKPEDTAVYYCAADVTMFYWWYGKEDYDFWGQGNQVTVSS | low polyreactivity
QVQLVESGGGLVQAGGSLRLSFDASGFISGDNTMGWYRQAPGKERELVAAINSGGSTYYADSVKGRFTISRDNAKNTFYLQMNSLKPEDTAVYYCAADYSTWLRAYDFWGQGTQVTVSS | low polyreactivity
QVQLVESGGGLVQAGGSLRLSCAASGIIFRTNAMGWYRQAPGKEREFVAAISAGGTRTYYADSVKGRFTISRDNAKNTVYLQMNSLKPEDTAVYYCAAASGYDYWGQGTQVTVSS | high polyreactivity
QDQLVESGGGLVQAGGSLRLSCAASGRTFNYNTMGWYIQAPGKERELVAAINKGGTRTYYADSVKGRFTISRDNAKNTVYLEMNSLKPEDTAVYYCAARLYSYDYWGQGTQVTVSS | high polyreactivity
QVQLVESGGGLVQAGGSLRLSCAGSGRIFARNVMGWYGQAPGKVRELVAAISRSGGSTYYADSVKGRFTISRDNAKNTVYLQMNSLKPEDTAFYYCNAYYPIRSSPYGYYYWGQGTQVTVSS | high polyreactivity
QVQLVESGGGLVQAGGSLRLSCAASGFTFAKNAMGWYRQAPGKERELVATISRSGGSTYYADSVKGRFTLSRDNAKNTVYLQMNSLKREVNAVYYCNKKYNYLYDYWGQGTQVTVSS | high polyreactivity

Sequence | polyreactivity (PSR sort gate)
QVQLVESGGGLVQAGGSLRLSCAASGRICDYNVMGWYRQAPGKERELVADITSSGGSTYYADSVKGRFTISRDNAKNTVYLQMNSLKPEDTAVYYCYISYFTFYDDFYYWGQGTQVTVSS | low polyreactivity
QVQLVESGGGLLQAGGSLRLSCAASGRTFNKYAMGWYRKAPGIVRELVAAINYSGGRTYYADSVKGRFTISRDNAKNSVYLEMNSLKPEDTAVFYCAATPTFFVWQGYNYWGQGTQVTVSS | low polyreactivity
QVQLVESGGGLVQAGGSLRLICAASGRTFENYAMGWYRQAPGKERELVAAISKSGGSTYYADSVKGRFTISRDNAKNPVYLQMNSLKPEDTAVYYCNARPGQSGARFGYWGQGTQVTVSS | high polyreactivity
QVQLVESGGGLVQAGGSLRLSCAASGFIFGYYVMGWSRQAPGKERELVAAISGSGGRTYYADSVKGRFTISRDNAKNTVYLQMNSLKPEDTAVYYCNAVAFYRDYNYWGQGTQVTVSS | high polyreactivity
QVQLVESGGGLVQAGGSLRLSCAASGIIFDLYTKGWYRQAPGKEREFVATINWGGGNTYYADSVKGRFTISRDNAKNTVYLQMNSLKPDDTAVYYCAAAYTWYGYSQAYYYWGQGSQVTVSS | low polyreactivity
QVQLVESGGGLVQAGGSLRLSCAASGIIFQQYAMGWYRQAPGKERELVAAITYSGDGTYYADSVKGRFTISRDNAKNTVYLQMNSLKPEDTAVYYCAADVGYFKSDYWGQGTQVTVSS | low polyreactivity
QVQLVESGGGLVQAGGSLRLSCAASGSIFSKNAMGWYRQAPGKERELVAAITGGGSTYYADSVKGRFTISRDNAKNTVYLQMNSLKPEDTAVYYCAAEFYVWGQGTQVTVSS | low polyreactivity
QVQLVESGGGLVQAGGSLRLSCAASGSIFRFNAMGWYRQAAGKERELVAAISVRGSRTYYADSVKGRFTSSSDNAKNTVYLQMNSLKPEDTAVYYCNAEALTYSSRYDYWGQGTQVTVSS | low polyreactivity
QVQLVESGGGLVQAGGTLRLSCAASGSTFKYYAMGWYRQAPGKEREFVASINWSGVSTYYADSVKGRFTISRDNAKNTVYLQMNSLKPEDTAVYYCAARVRGKYDYWGQGTQVTVSS | high polyreactivity
QVQLVESGGGLVQAGGSLRLSCAASGFNFRGNAMGWYRQAPGKERELVARISGSGDSTYYADSVKGRFTISRDNAKNTVYLQMNSLKPEDTAVYYCNADVFPAVEAYDSSIEYYSWGQGTQVTVSS | low polyreactivity
QVQLVESGRGLVQAGVSLRISCAPSGRIFSGYAMGWYRQAPGKERELVAAITSSSGSTYYADSVKWRFTISRDNAKNTFYLQMISLKPEDTAVYYCAAEYVRLYWYTSDYWGQGTEVTVSS | low polyreactivity
QVQLVESGGGLVQAGGSLRLSCAASGFTFITNAMGWYRQAPGNERELVASISIGGSTNYADSVKGRFTISRDNAKNTVYLQMNSLKPEDTAVYYCAARVYRRLFLPGRFGRPLGYWGQGTQVTVSS | high polyreactivity
QVHLVESGGGVVQAGGSLRLSCAASGRIFHRYEMGWYRQAPVKERELVAAINWRTGNTYYADSVKGRFTISRDNAKNTVYLQMNSLKAEDTAVYYCNARYRSDYWGIQYDYWGQGTQVTVSS | high polyreactivity
QVQLVESGGGLVQAGGSLRLSCAASGSTSYFNVKGWYRQAPGKERELVAAISWSGGSTYADSVKGRFTISRDNAKNTVYLQMNSLKREDTAVYYCNKDYGYVQLRFYGPGYYWGQGTQVTVSS | low polyreactivity
QVQLVESGGGLVQAGRSLRLSCAASRSIFARYAMAWYRQAPGKERELVAAINSTVSTNYADSVKGRFTISRENAKNTVYLQMNSLKPEDTAVSYCAVDMVRGGLDSWGQGTQVTVSS | low polyreactivity
QVPLVESVGGLVQAGGSLRLSCAASGRIFRANAMGWYRQAPGKEREFVAAINFSVSSTYAYSVKGRFTISRDNAKNTVYLQMNSLKPEDTAVYYCAATPTREGEYWGQGTQVTVSS | low polyreactivity
QVQLVESGGGLVQAGGSLRLSCAASGSTFFGNAMGWYIQAPGKERELVAAIRFSGVGTYYADSVKGRFTISRDNAKNTVYLQLNSLKPEYTEVFYCAAESYYKYYWGQGTQVTVSS | low polyreactivity
QVQLVESGVGLVQAGGSLRLSCAASGITFAGNAMGWYRQAPGKERELVATITSDGNTNYADSVKGRFTISRDNAKNTVYLQMNSLKPEDTAVYYCNAEVIVGTDEYDYWGQGTQVTVSS | low polyreactivity
QVQLVESGGGLVQAGGSLRLSCAASGSTLLYYAKGWYRQAPGKERELVAAISWRGGSTYYADSVKGRFTISRDNAKYTVYLQMNSLKPEDTAVYYCAARSLRLVGPYYYWGQGTQVTVSS | high polyreactivity
QVQLVESGGGLVQAGGSLRLSCAASGFTFTAYAMGLYRKATGKERELVAGISRRGASTYYADSVKGRFTISRDYAKNTVYLQMNSLKPEDTAVYYCAALGKYIVAWSGDYWGQGTQVTVSS | low polyreactivity
QVQLVESGGGLVQAGASLRLSCAASGSTFYIYAMGWYRQAPGKERELVAGISSGSTYYADSVKGRFTISRDNAKNTVYLQMNSLKPEVTAVYYCAVDSYYFLKDPISYGLYYYWGQGTQVTVSS | low polyreactivity
